In US20200024330A1:

How the values were obtained:
Assay in all cases: cell-based or functional assay
[1] = target: HIV-1 envelope glycoprotein (Env) of isolate MGRM-C-020, on pseudovirus (HIV-1)
[2] = target: HIV-1 envelope glycoprotein (Env) of isolate MGRM-C-024, on pseudovirus (HIV-1)
[3] = target: HIV-1 Env of isolate MGRM-G-015 (subtype G) (HIV-1)
[4] = target: HIV-1 envelope glycoprotein (Env) of isolate MGRM-C-026, on pseudovirus (HIV-1)
[5] = target: HIV-1 envelope glycoprotein (Env) of isolate MGRM-C-027, on pseudovirus (HIV-1)
[6] = target: HIV-1 Env of isolate MGRM-G-011 (subtype G) (HIV-1)
[7] = target: HIV-1 envelope glycoprotein (Env) of isolate MGRM-C-025, on pseudovirus (HIV-1)
[8] = target: HIV-1 envelope glycoprotein (Env) of isolate MGRM-C-017, on pseudovirus (HIV-1)
[9] = target: HIV-1 Env of isolate MGRM-G-028 (subtype G) (HIV-1)
[10] = target: HIV-1 Env of isolate MGRM-G-006 (subtype G) (HIV-1)
[11] = target: HIV-1 Env of isolate MGRM-AG-013 (HIV-1)
[12] = target: HIV-1 Env of isolate MGRM-G-009 (subtype G) (HIV-1)
[13] = target: HIV-1 Env of isolate MGRM-G-025 (subtype G) (HIV-1)
[14] = target: HIV-1 Env of isolate MGRM-AG-005 (HIV-1)
[15] = target: HIV-1 Env of isolate MGRM-AE-007 (HIV-1)
[16] = target: HIV-1 Env of isolate MGRM-AG-012 (HIV-1)
[17] = target: HIV-1 envelope glycoprotein (Env) of isolate MGRM-C-023, on pseudovirus (HIV-1)
[18] = target: aMLV envelope (negative control pseudovirus)
[19] = target: HIV-1 Env of isolate MGRM-G-004 (subtype G) (HIV-1)
[20] = target: HIV-1 Env of isolate MGRM-G-017 (subtype G) (HIV-1)
[21] = target: HIV-1 Env of isolate MGRM-AG-008 (HIV-1)
[22] = target: HIV-1 Env of isolate MGRM-AG-011 (HIV-1)
[23] = target: HIV-1 Env of isolate MGRM-G-013 (subtype G) (HIV-1)
[24] = target: HIV-1 Env of isolate MGRM-G-014 (subtype G) (HIV-1)
[25] = target: HIV-1 Env of isolate MGRM-AG-003 (HIV-1)
[26] = target: HIV-1 envelope glycoprotein (Env) of isolate MGRM-C-019, on pseudovirus (HIV-1)
[27] = target: HIV-1 Env of isolate MGRM-G-016 (subtype G) (HIV-1)
[28] = target: HIV-1 envelope glycoprotein (Env) of isolate MGRM-C-015, on pseudovirus (HIV-1)
[29] = target: HIV-1 Env of isolate MGRM-G-024 (subtype G) (HIV-1)
[30] = target: HIV-1 Env of isolate MGRM-AG-002 (HIV-1)
[31] = target: HIV-1 Env of isolate MGRM-G-001 (subtype G) (HIV-1)
[32] = target: HIV-1 envelope glycoprotein (Env) of isolate MGRM-C-022, on pseudovirus (HIV-1)
[33] = target: HIV-1 Env of isolate MGRM-AG-009 (HIV-1)
[34] = target: HIV-1 Env of isolate MGRM-AG-001 (HIV-1)
[35] = target: HIV-1 envelope glycoprotein (Env) of isolate MGRM-C-028, on pseudovirus (HIV-1)
[36] = target: HIV-1 Env of isolate MGRM-G-027 (subtype G) (HIV-1)
[37] = target: HIV-1 Env of isolate MGRM-AG-006 (HIV-1)
[38] = target: HIV-1 envelope glycoprotein (Env) of isolate MGRM-C-014, on pseudovirus (HIV-1)
[39] = target: HIV-1 Env of isolate MGRM-AE-008 (HIV-1)
[40] = target: HIV-1 Env of isolate MGRM-G-019 (subtype G) (HIV-1)

With PGT-145 (4995_P16) (antibody) the IC50, pseudovirus neutralization [1] was 0.712 µg/mL, the IC50, pseudovirus neutralization [2] was 0.174 µg/mL and the neutralization IC50 [3] was 10.5 µg/mL. It also gave an IC50, pseudovirus neutralization [4] greater than 50 µg/mL, an IC50, pseudovirus neutralization [5] of 0.095 µg/mL and a neutralization IC50 [6] of 0.028 µg/mL. For the same substance, the IC50, pseudovirus neutralization [7] was 0.044 µg/mL, the IC50, pseudovirus neutralization [8] was greater than 50 µg/mL and the neutralization IC50 [9] was 0.046 µg/mL. The neutralization IC50 [10] was 0.286 µg/mL, the IC50 [11] was 14.4 µg/mL and the neutralization IC50 [12] was 0.982 µg/mL. For the same substance, the neutralization IC50 [13] was greater than 50 µg/mL, the IC50 [14] was 0.045 µg/mL and the IC50 [15] was 0.181 µg/mL. For the same substance, the IC50 [16] was greater than 50 µg/mL, the IC50, pseudovirus neutralization [17] was 0.201 µg/mL and the neutralization IC50 [18] was greater than 50 µg/mL. It also gave a neutralization IC50 [19] greater than 50 µg/mL, a neutralization IC50 [20] of 0.205 µg/mL and an IC50 [21] of 0.244 µg/mL. It also gave an IC50 [22] of 0.003 µg/mL, a neutralization IC50 [23] greater than 50 µg/mL and a neutralization IC50 [24] of 0.144 µg/mL. It also gave an IC50 [25] greater than 50 µg/mL, an IC50, pseudovirus neutralization [26] of 0.005 µg/mL and a neutralization IC50 [27] of 0.081 µg/mL. It also gave an IC50, pseudovirus neutralization [28] of 0.12 µg/mL, a neutralization IC50 [29] of 0.06 µg/mL and an IC50 [30] of 0.056 µg/mL. For the same substance, the neutralization IC50 [31] was 0.028 µg/mL, the IC50, pseudovirus neutralization [32] was 0.492 µg/mL and the IC50 [33] was greater than 50 µg/mL. It also gave an IC50 [34] of 0.164 µg/mL, an IC50, pseudovirus neutralization [35] of 0.099 µg/mL and a neutralization IC50 [36] of 0.433 µg/mL. It also gave an IC50 [37] of 6.6 µg/mL, an IC50, pseudovirus neutralization [38] of 5.82 µg/mL and an IC50 [39] of 1.46 µg/mL. For the same substance, the neutralization IC50 [40] was 0.041 µg/mL.
